Measurements: patent US20240317847A1 (Bayer, published 2024)

T1: murine IL-11 (mouse, UniProt P47873 22-199)
T1 construct: Invigate recombinant protein; biotinylated when immobilized in the Di-complex ELISA; also called mIL11; mIL-11
T1 sequence: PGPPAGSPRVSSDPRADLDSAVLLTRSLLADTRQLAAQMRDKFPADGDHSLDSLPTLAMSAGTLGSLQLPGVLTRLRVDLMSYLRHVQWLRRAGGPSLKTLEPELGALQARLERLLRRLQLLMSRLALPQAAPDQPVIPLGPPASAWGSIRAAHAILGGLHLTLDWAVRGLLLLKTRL

T2: rat IL-11 (rat, UniProt Q99MF5 22-199)
T2 sequence: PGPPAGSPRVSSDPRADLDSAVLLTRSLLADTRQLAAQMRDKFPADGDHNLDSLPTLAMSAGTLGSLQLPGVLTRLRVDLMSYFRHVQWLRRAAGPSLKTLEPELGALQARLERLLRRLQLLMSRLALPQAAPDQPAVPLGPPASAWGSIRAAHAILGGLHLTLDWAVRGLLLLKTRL

T3: human IL-11 (human, UniProt P20809 22-199)
T3 sequence: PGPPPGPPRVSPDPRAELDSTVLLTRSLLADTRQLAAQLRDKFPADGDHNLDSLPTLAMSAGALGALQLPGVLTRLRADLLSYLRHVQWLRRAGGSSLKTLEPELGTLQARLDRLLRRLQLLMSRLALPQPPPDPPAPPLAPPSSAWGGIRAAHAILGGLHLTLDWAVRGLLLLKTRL

T4: cynomolgus IL-11 (cynomolgus, UniProt P20808 22-199)
T4 sequence: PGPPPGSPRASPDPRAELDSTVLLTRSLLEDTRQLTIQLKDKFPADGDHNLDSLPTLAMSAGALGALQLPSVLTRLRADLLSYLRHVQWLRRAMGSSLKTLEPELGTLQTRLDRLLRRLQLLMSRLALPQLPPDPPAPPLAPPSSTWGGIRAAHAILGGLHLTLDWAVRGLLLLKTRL

B1: TPP-29697 (bispecific antibody, IgG1)
chain 1: QVQLVESGGGVVQPGRSLRLSCAASGFTFSHYDMHWVRQAPGKGLEWVAVISYHGSVKFYADSVKGRFTISRDNSKNTLYLQMNSLRAEDTAVYYCARTPGFHFDYWGQGTLVTVSSGGGGSGGGGSGGGGSQSVLTQPPSASGTPGQRVTISCSGSSSNIGSNYVSWYQQLPGTAPKLLIYYDDLRPSGVPDRFSGSKSGTSASLAISGLRSEDEADYYCSAWDDSLSGVVFGGGTKLTVLGGGGSGGGGSGGGGSGVECPPCPAPPVAGPSVFLFPPKPKDTLMISRTPEVTCVVVGVSHEDPEVKFNWYVDGVEVHNAKTKPREEQYNSTYRVVSVLTVLHQDWLNGKEYKCKVSNKQLPSPIEKTISKAKGQPREPQVYTLPPCRDELTKNQVSLWCLVKGFYPSDIAVEWESNGQPENNYKTTPPVLDSDGSFFLYSKLTVDKSRWQQGNVFSCSVMHEALHNHYTQKSLSLSPGK
chain 2: EVQLLESGGGLVQPGGSLRLSCAASGFTFSSYGMHWVRQAPGKGLEWVAVISYDGSYKYYADSVKGRFTISRDNSKNTLYLQMNSLRAEDTAVYYCAAGVPDYWGQGTLVTVSSGGGGSGGGGSGGGGSQSVLTQPPSASGTPGQRVTISCSGSSSNIGSDYDVHWYQQLPGTAPKLLIYSNEERPSGVPDRFSGSKSGTSASLAISGLRSEDEADYYCSAWDSSLSGPVFGGGTKLTVLGGGGSGGGGSGGGGSGVECPPCPAPPVAGPSVFLFPPKPKDTLMISRTPEVTCVVVGVSHEDPEVKFNWYVDGVEVHNAKTKPREEQYNSTYRVVSVLTVLHQDWLNGKEYKCKVSNKQLPSPIEKTISKAKGQPREPQVCTLPPSRDELTKNQVSLSCAVKGFYPSDIAVEWESNGQPENNYKTTPPVLDSDGSFFLVSKLTVDKSRWQQGNVFSCSVMHEALHNHYTQKSLSLSPGK
notes: scFv-kih-hIgG1 with Fc-silencing mutations; bispecific comprising CDRs of TPP-29528 and TPP-29519
B2: TPP-29603 (bispecific antibody, IgG1)
chain 1: QVQLVESGGGVVQPGRSLRLSCAASGFTFSHYDMHWVRQAPGKGLEWVAVISYHGSVKFYADSVKGRFTISRDNSKNTLYLQMNSLRAEDTAVYYCARTPGFHFDYWGQGTLVTVSSGGGGSGGGGSGGGGSQSVLTQPPSASGTPGQRVTISCSGSSSNIGSNYVSWYQQLPGTAPKLLIYYDDLRPSGVPDRFSGSKSGTSASLAISGLRSEDEADYYCSAWDDSLSGVVFGGGTKLTVLGGGGSGGGGSGGGGSGVECPPCPAPPVAGPSVFIFPPKPKDVLTITLTPKVTCVVVDISKDDPEVQFSWFVDDVEVHTAQTQPREEQFNSTFRSVSELPIMHQDWLNGKEFKCRVNSAAFPAPIEKTISKTKGRPKAPQVYTIPPCKEQMAKDKVSLWCMITDFFPEDITVEWQWNGQPAENYKNTQPIMDTDGSYFVYSKLNVQKSNWEAGNTFTCSVLHEGLHNHHTEKSLSHSPGK
chain 2: EVQLLESGGGLVQPGGSLRLSCAASGFTFSSYGMHWVRQAPGKGLEWVAVISYDGSYKYYADSVKGRFTISRDNSKNTLYLQMNSLRAEDTAVYYCAAGVPDYWGQGTLVTVSSGGGGSGGGGSGGGGSQSVLTQPPSASGTPGQRVTISCSGSSSNIGSDYDVHWYQQLPGTAPKLLIYSNEERPSGVPDRFSGSKSGTSASLAISGLRSEDEADYYCSAWDSSLSGPVFGGGTKLTVLGGGGSGGGGSGGGGSGVECPPCPAPPVAGPSVFIFPPKPKDVLTITLTPKVTCVVVDISKDDPEVQFSWFVDDVEVHTAQTQPREEQFNSTFRSVSELPIMHQDWLNGKEFKCRVNSAAFPAPIEKTISKTKGRPKAPQVCTIPPPKEQMAKDKVSLSCAITDFFPEDITVEWQWNGQPAENYKNTQPIMDTDGSYFVVSKLNVQKSNWEAGNTFTCSVLHEGLHNHHTEKSLSHSPGK
notes: scFv-kih-mIgG1; bispecific comprising CDRs of TPP-29528 and TPP-29519

Columns and labels:
[1] = target: T1, murine IL-11; assay: SPR (Biacore), 37 C, antibody captured via anti-Fc, IL-11 as analyte
Procedure: To assess the binding kinetics and affinity of anti-IL-11 bispecific antibodies as well as their species cross-reactivity profile, binding assays were conducted using surface plasmon resonance (SPR). […] Antibodies were captured either via anti-human Fc IgGs (“Human antibody capture kit”, Order No. BR100839, Cytiva) or via anti-mouse Fc IgGs (“Mouse antibody capture kit, Order No. BR100383, Cytiva) covalently amine coupled to a Series S CM5 sensor chip (Cytiva) depending on the isotype. The amine coupling was carried out according to the manufacturer's instructions using 1-ethyl-3-(3-dimethylaminopropyl) carbodiimide hydrochloride (EDC), N-hydroxysuccinimide (NHS) and ethanolamine HCl, pH 8.5 (“Amine Coupling Kit” BR-1000-50, Cytiva.). Human, mouse, cynomolgus or rat IL-11 was used as analyte at several dilutions within the concentration range from 0.05-200 nM. For binding assays with only one concentration 200 nM IL-11 was used. The sensor surface was regenerated with glycine pH 1.7 after each antigen injection. Obtained sensorgrams were double referenced (subtraction of reference flow cell signal and buffer injection) and were fitted to a 1:1 Langmuir binding model to derive kinetic data using the Biacore T200 Evaluation software or the Biacore Insight software.
If no value is reported, there was either no binding or very low binding and multiphasic binding behavior.

[2] = target: T1, murine IL-11; assay: cell-based or functional assay
[3] = target: T2, rat IL-11; assay: cell-based or functional assay
[4] = target: T3, human IL-11; assay: cell-based or functional assay
[5] = target: T4, cynomolgus IL-11; assay: cell-based or functional assay

Binder	Kd [1] [nM]	Efficacy (%), Stat3 reporter gene assay [2] [%]	IC50, Stat3 reporter gene assay [2] [nM]	Efficacy (%), Stat3 reporter gene assay [3] [%]	IC50, Stat3 reporter gene assay [3] [nM]	Efficacy (%), Stat3 reporter gene assay [4] [%]	IC50, Stat3 reporter gene assay [4] [nM]	Efficacy (%), Stat3 reporter gene assay [5] [%]	IC50, Stat3 reporter gene assay [5] [nM]
B1	< 0.001	99.6	1.4	97.6	~1.2	99.1	2	100	0.75
B2	0.0017	102	2	99.9	2	101	4.1	101	1.7
